Measurements from patent US20140274782A1, “AFFINITY REAGENTS AND METHODS FOR DETECTION, PURIFICATION, AND PROTEOMIC ANALYSIS OF METHYLATED PROTEINS” (The Board of Trustees of the Leland Stanford Junior …, priority 2013, published 2014).

B1: UBA1 (protein, UniProt P22314 2-1058, looked up)
Ubiquitin-like …: SSSPLSKKRRVSGPDPKPGSNCSPAQSVLSEVPSVPTNGMAKNGSEADIDEGLYSRQLYVLGHEAMKRLQTSSVLVSGLRGLGVEIAKNIILGGVKAVTLHDQGTAQWADLSSQFYLREEDIGKNRAEVSQPRLAELNSYVPVTAYTGPLVEDFLSGFQVVVLTNTPLEDQLRVGEFCHNRGIKLVVADTRGLFGQLFCDFGEEMILTDSNGEQPLSAMVSMVTKDNPGVVTCLDEARHGFESGDFVSFSEVQGMVELNGNQPMEIKVLGPYTFSICDTSNFSDYIRGGIVSQVKVPKKISFKSLVASLAEPDFVVTDFAKFSRPAQLHIGFQALHQFCAQHGRPPRPRNEEDAAELVALAQAVNARALPAVQQNNLDEDLIRKLAYVAAGDLAPINAFIGGLAAQEVMKACSGKFMPIMQWLYFDALECLPEDKEVLTEDKCLQRQNRYDGQVAVFGSDLQEKLGKQKYFLVGAGAIGCELLKNFAMIGLGCGEGGEIIVTDMDTIEKSNLNRQFLFRPWDVTKLKSDTAAAAVRQMNPHIRVTSHQNRVGPDTERIYDDDFFQNLDGVANALDNVDARMYMDRRCVYYRKPLLESGTLGTKGNVQVVIPFLTESYSSSQDPPEKSIPICTLKNFPNAIEHTLQWARDEFEGLFKQPAENVNQYLTDPKFVERTLRLAGTQPLEVLEAVQRSLVLQRPQTWADCVTWACHHWHTQYSNNIRQLLHNFPPDQLTSSGAPFWSGPKRCPHPLTFDVNNPLHLDYVMAAANLFAQTYGLTGSQDRAAVATFLQSVQVPEFTPKSGVKIHVSDQELQSANASVDDSRLEELKATLPSPDKLPGFKMYPIDFEKDDDSNFHMDFIVAASNLRAENYDIPSADRHKSKLIAGKIIPAIATTTAAVVGLVCLELYKVVQGHRQLDSYKNGFLNLALPFFGFSEPLAAPRHQYYNQEWTLWDRFEVQGLQPNGEEMTLKQFLDYFKTEHKLEITMLSQGVSMLYSFFMPAAKLKERLDQPMTEIVSRVSKRKLGRHVRALVLELCCNDESGEDVEVPYVRYTIR
B2: SH3PXD2B (protein, UniProt A1X283 1-911, looked up)
SH3 and PX domain-containing …: MPPRRSIVEVKVLDVQKRRVPNKHYVYIIRVTWSSGSTEAIYRRYSKFFDLQMQMLDKFPMEGGQKDPKQRIIPFLPGKILFRRSHIRDVAVKRLIPIDEYCKALIQLPPYISQCDEVLQFFETRPEDLNPPKEEHIGKKKSGGDQTSVDPMVLEQYVVVANYQKQESSEISLSVGQVVDIIEKNESGWWFVSTAEEQGWVPATCLEGQDGVQDEFSLQPEEEEKYTVIYPYTARDQDEMNLERGAVVEVIQKNLEGWWKIRYQGKEGWAPASYLKKNSGEPLPPKPGPGSPSHPGALDLDGVSRQQNAVGREKELLSSQRDGRFEGRPVPDGDAKQRSPKMRQRPPPRRDMTIPRGLNLPKPPIPPQVEEEYYTIAEFQTTIPDGISFQAGLKVEVIEKNLSGWWYIQIEDKEGWAPATFIDKYKKTSNASRPNFLAPLPHEVTQLRLGEAAALENNTGSEATGPSRPLPDAPHGVMDSGLPWSKDWKGSKDVLRKASSDMSASAGYEEISDPDMEEKPSLPPRKESIIKSEGELLERERERQRTEQLRGPTPKPPGVILPMMPAKHIPPARDSRRPEPKPDKSRLFQLKNDMGLECGHKVLAKEVKKPNLRPISKSKTDLPEEKPDATPQNPFLKSRPQVRPKPAPSPKTEPPQGEDQVDICNLRSKLRPAKSQDKSLLDGEGPQAVGGQDVAFSRSFLPGEGPGRAQDRTGKQDGLSPKEISCRAPPRPAKTTDPVSKSVPVPLQEAPQQRPVVPPRRPPPPKKTSSSSRPLPEVRGPQCEGHESRAAPTPGRALLVPPKAKPFLSNSLGGQDDTRGKGSLGPWGTGKIGENREKAAAASVPNADGLKDSLYVAVADFEGDKDTSSFQEGTVFEVREKNSSGWWFCQVLSGAPSWEGWIPSNYLRKKP
B3: EWSR1 (protein, UniProt Q01844 1-656, looked up)
RNA-binding protein EWS: MASTDYSTYSQAAAQQGYSAYTAQPTQGYAQTTQAYGQQSYGTYGQPTDVSYTQAQTTATYGQTAYATSYGQPPTGYTTPTAPQAYSQPVQGYGTGAYDTTTATVTTTQASYAAQSAYGTQPAYPAYGQQPAATAPTRPQDGNKPTETSQPQSSTGGYNQPSLGYGQSNYSYPQVPGSYPMQPVTAPPSYPPTSYSSTQPTSYDQSSYSQQNTYGQPSSYGQQSSYGQQSSYGQQPPTSYPPQTGSYSQAPSQYSQQSSSYGQQSSFRQDHPSSMGVYGQESGGFSGPGENRSMSGPDNRGRGRGGFDRGGMSRGGRGGGRGGMGSAGERGGFNKPGGPMDEGPDLDLGPPVDPDEDSDNSAIYVQGLNDSVTLDDLADFFKQCGVVKMNKRTGQPMIHIYLDKETGKPKGDATVSYEDPPTAKAAVEWFDGKDFQGSKLKVSLARKKPPMNSMRGGLPPREGRGMPPPLRGGPGGPGGPGGPMGRMGGRGGDRGGFPPRGPRGSRGNPSGGGNVQHRAGDWQCPNPGCGNQNFAWRTECNQCKAPKPEGFLPPPFPPPGGDRGRGGPGGMRGGRGGLMDRGGPGGMFRGGRGGDRGGFRGGRGMDRGGFGGGRRGGPGGPPGPLMEQMGGRRGGRGGPGKMDKGEHRQERRDRPY
B4: DSTN (protein, UniProt P60981 2-165, looked up)
Destrin: ASGVQVADEVCRIFYDMKVRKCSTPEEIKKRKKAVIFCLSADKKCIIVEEGKEILVGDVGVTITDPFKHFVGMLPEKDCRYALYDASFETKESRKEELMFFLWAPELAPLKSKMIYASSKDAIKKKFQGIKHECQANGPEDLNRACIAEKLGGSLIVAFEGCPV

What was measured:
3×MBT domain of L3MBTL1 = test: Triple SILAC pull-down, 3xMBT/3xMBTD355N ratio (cytoplasmic, nuclear and chromatin fractions of 293T cells); type: binding, human; conditions: SILAC ratio, pull-down 3xMBT vs 3xMBTD355N; for 3xMBT/D355N UNC Heavy: experiment with UNC0638 in heavy SILAC media; for 3xMBT/D355N UNC Light: experiment with UNC0638 in light SILAC media;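 on all read-outs here: proteins quantified with MaxQuant, requiring at least two unique peptides and quantification in both label directions, normalized to the mean of proteins from a digested loading control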
Method: For stable isotope labeling by amino acids in cell culture (SILAC) experiments HEK 293T cells were grown for at least six doublings in DMEM for SILAC supplemented with 10% dialyzed fetal bovine serum (FBS), 230 mg/L L-proline and either 100 mg/L each of L-lysine and L-arginine (“light” medium), D4-L-lysine and ^13C6-L-arginine (“medium” media), or ^13C6^15N2-L-lysine and ^13C6^15N4-L-arginine (Thermo Scientific). Heavy methyl labeling used DMEM without L-Methionine or L-Cysteine supplemented with D3^13C-L-Methionine (Sigma), L-Cysteine (Sigma) and 10% dialyzed FBS.
For UNC0638 treatments cells were treated for 24 hours with UNC0638 at 2.5 μM or DMSO vehicle control. One experiment treated cells in light media with UNC0638, the other treated cells in heavy media. Both experiments included cells in medium media treated with DMSO for negative control pull-down with 3×MBTD355N.
UNC0638 treatment experiments used a Q-Exactive mass spectrometer (ThermoFisher Scientific). A 25 cm HPLC column with 3 μm Reliasil (Orochem) was used to separate peptides over a 4 hour gradient from 0 to 75% acetonitrile. Ions were generated using a custom nanospray source flowing at 250 nL/minute. Mass spectrometry settings were 70,000 MS1 resolution, data dependent selection of up to 20 precursor ions per cycle, dynamic exclusion of 30 seconds and isolation window of 2 m/z. The nuclear fraction from the experiment using UNC0638 on cells in heavy media was additionally analyzed by 2D HPLC-MS/MS as described earlier.
Peptides were identified and quantified using MaxQuant version 1.2.2.5 (Cox and Mann, supra) with the following changes to default settings: mono- and di-methylation of lysine, and oxidation of methionine, and N-terminal acetylation as variable modifications, disabled “I=L”, up to three modifications per peptide, one missed cleavage, maximum charge of 5. Protein and peptide FDR were set to 1%, and proteins were filtered post-hoc for at least two unique peptides. Proteins were excluded from an experiment if they were not quantified in both labeling directions. Because FDR is unreliable for small numbers of peptides the modification site FDR was set to 10% and all methylated peptides were manually verified. […] Quantitative protein data was normalized to the mean value among proteins identified by analyzing 50 ng of digested loading control.
For UNC0638 experiments the treated vs. untreated ratio was determined by subtracting the value from 3×MBTD355N prior to dividing values from the light and heavy channels. Only proteins showing a two-fold signal to background ratio (3×MBT/3×MBTD355N) were evaluated as potential G9a/GLP substrates.

G9a and GLP = molecular target: T1, G9a and GLP (Homo sapiens, UniProt Q96KQ7+Q9H9B1); test: Triple SILAC pull-down after UNC0638 treatment of 293T cells, DMSO/UNC0638 ratio of protein captured by 3×MBT; type: cell-based; design: endogenous in cells; host or cells: HEK 293T; conditions: for Relative to UNC0638 UNC Light / Relative to UNC0638 UNC Heavy: SILAC ratio DMSO/UNC0638 of protein pulled down with 3xMBT; for Relative to UNC0638 UNC Light: UNC0638 in light SILAC media; for Relative to UNC0638 Average: average of UNC Light and UNC Heavy experiments; for Relative to UNC0638 UNC Heavy: UNC0638 in heavy SILAC media;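 on all read-outs here: mass spectrometry (Q-Exactive) SILAC quantitation, DMSO/UNC0638 ratio computed after subtracting 3×MBTD355N mutant pull-down background, only proteins with at least twofold 3×MBT over mutant signal considered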
T1 sequence (Q96KQ7 2-1210 limits assumed): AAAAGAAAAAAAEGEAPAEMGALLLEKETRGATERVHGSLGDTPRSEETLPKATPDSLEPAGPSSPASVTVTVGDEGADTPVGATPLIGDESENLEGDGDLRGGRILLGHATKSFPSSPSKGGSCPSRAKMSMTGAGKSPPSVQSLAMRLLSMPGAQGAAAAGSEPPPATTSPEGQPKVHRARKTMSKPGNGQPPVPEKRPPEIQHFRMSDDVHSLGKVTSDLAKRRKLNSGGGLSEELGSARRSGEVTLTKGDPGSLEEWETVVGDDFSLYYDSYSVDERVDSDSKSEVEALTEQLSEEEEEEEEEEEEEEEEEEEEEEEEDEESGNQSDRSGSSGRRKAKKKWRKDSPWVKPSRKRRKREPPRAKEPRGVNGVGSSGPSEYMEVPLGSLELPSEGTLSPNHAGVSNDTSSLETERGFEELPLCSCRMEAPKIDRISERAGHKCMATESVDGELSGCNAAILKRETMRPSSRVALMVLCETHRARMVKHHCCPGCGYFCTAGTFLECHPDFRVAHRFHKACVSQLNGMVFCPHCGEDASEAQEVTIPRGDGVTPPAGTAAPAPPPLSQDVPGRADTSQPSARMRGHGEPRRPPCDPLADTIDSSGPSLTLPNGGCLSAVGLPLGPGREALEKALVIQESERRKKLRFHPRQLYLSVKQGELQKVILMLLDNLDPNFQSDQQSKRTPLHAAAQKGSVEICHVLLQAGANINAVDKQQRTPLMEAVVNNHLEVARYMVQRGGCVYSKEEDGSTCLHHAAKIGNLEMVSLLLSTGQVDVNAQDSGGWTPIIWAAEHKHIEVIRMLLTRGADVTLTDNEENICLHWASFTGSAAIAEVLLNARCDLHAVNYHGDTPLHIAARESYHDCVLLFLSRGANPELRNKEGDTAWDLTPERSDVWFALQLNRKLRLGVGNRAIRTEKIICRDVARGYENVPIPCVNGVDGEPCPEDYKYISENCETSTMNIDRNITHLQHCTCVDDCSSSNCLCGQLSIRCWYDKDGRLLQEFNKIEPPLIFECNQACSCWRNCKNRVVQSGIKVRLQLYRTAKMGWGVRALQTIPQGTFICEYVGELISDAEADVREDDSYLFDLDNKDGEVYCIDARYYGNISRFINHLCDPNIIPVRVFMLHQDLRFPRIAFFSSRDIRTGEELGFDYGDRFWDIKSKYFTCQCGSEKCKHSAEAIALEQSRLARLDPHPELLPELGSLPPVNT
T1 sequence (Q9H9B1 2-1298 limits assumed): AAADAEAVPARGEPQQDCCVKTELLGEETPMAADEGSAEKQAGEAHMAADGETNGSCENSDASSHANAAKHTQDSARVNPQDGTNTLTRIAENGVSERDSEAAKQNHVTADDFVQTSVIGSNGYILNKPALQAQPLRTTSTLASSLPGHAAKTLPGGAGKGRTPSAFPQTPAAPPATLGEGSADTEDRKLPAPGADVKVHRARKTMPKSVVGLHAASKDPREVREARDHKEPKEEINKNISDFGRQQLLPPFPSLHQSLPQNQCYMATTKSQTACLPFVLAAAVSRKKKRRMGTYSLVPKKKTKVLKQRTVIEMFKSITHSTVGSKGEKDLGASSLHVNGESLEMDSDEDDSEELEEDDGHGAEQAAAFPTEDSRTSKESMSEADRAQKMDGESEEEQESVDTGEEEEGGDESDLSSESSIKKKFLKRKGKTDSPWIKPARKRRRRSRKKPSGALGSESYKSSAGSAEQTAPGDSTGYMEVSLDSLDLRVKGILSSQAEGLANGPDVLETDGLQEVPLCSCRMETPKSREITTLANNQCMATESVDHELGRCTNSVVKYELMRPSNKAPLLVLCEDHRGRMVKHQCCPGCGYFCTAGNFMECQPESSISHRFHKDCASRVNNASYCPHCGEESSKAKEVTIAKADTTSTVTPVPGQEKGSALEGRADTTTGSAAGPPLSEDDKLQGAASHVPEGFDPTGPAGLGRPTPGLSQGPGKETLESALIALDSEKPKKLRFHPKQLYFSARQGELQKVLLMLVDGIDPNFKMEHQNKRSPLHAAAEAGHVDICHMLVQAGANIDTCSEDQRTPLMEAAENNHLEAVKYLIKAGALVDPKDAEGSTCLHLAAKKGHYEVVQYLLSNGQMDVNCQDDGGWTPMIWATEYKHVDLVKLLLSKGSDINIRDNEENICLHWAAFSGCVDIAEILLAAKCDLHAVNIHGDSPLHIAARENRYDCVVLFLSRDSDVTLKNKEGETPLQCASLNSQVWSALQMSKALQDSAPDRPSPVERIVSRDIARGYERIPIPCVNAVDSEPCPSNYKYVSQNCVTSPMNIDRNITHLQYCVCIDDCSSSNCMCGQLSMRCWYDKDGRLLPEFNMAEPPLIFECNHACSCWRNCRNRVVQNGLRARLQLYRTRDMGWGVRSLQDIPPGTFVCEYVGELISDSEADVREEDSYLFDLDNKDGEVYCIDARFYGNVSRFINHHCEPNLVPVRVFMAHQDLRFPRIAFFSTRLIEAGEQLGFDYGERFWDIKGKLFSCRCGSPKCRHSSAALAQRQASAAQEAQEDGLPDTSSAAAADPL

Row | Molecule | 3xMBT/D355N UNC Heavy (3×MBT domain of L3MBTL1) [log base 2] | 3xMBT/D355N UNC Light (3×MBT domain of L3MBTL1) [log base 2] | Relative to UNC0638 UNC Light (G9a and GLP) [log base 2] | Relative to UNC0638 Average (G9a and GLP) [log base 2] | Relative to UNC0638 UNC Heavy (G9a and GLP) [log base 2]
1 | B1 | 0.55 | 2.51 | 0.13 | 0.13 | 
2 | B2 | 3.07 | 3.71 | 0.37 | 0.14 | −0.09
3 | B3 | 2.09 | 2.82 | 0.38 | 0.14 | −0.11
4 | B4 | 3.00 | 2.54 | 0.04 | 0.14 | 0.24
